Values of other authors as cited in PMC4067574.
Where two headings read alike, the source gives them in different places.

What was measured:
C3b C3b (Homo sapiens) [1] = target: C3b C3b (Homo sapiens) (UniProt P01024)
C3b C3b (Homo sapiens) [2] = target: C3b C3b (Homo sapiens) (UniProt P01024); remark: listed apart in the source

Sequence of C3b C3b (Homo sapiens) (P01024 566-670): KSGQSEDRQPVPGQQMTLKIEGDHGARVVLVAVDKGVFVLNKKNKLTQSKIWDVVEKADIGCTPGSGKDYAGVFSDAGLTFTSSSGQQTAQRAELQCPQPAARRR
Sequence of complement factor H C-terminal fragment C-terminal two modules (P08603 1103-1231): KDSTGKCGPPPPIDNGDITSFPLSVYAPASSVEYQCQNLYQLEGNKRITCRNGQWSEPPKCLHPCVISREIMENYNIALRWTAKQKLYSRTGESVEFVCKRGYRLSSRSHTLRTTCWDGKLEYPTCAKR
Sequence of complement factor H rFH1-4 N-terminal modules 1-4 (P08603 19-264): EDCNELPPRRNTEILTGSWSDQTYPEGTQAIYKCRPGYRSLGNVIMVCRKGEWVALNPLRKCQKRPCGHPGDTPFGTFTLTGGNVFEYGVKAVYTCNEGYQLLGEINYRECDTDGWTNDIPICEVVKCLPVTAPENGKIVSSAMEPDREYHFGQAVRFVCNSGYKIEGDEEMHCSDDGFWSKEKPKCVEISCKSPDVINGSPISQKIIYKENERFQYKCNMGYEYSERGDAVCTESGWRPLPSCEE

Row | Kd (C3b C3b (Homo sapiens) [1]) | Kd (C3b C3b (Homo sapiens) [2]) | Substance
1 | 10 µM | – | complement factor H rFH1-4 N-terminal modules 1-4 (from UniProt P08603)
2 | – | 4 µM | complement factor H C-terminal fragment C-terminal two modules (from UniProt P08603)
